Source: publication PMC9482650, “Quantitative fragmentomics allow affinity mapping of interactomes” (Nature Communications, 2022)
Blank lines part the entries; values can stand above or below the binder they belong to.

Legend:
Experiment in all cases: holdup assay
Design in all cases: key: below the threshold = too weak to quantify, mostly under pKd 3.1 to 4
DLG1_1, Q12959 = target: DLG1_1, Q12959
NOS1, P29475 = target: NOS1, P29475
HTRA4, P83105 = target: T1, HTRA4, P83105
T1 sequence (P83105 378-476, limits assumed, looked up): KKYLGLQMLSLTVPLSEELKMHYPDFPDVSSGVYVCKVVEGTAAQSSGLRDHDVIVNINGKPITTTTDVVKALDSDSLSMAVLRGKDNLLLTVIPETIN

SCRIB_1, Q14160 = target: SCRIB_1, Q14160
PARD3_3, Q8TEW0 = target: PARD3_3, Q8TEW0
NHERF3_4, Q5T2W1 = target: T2, NHERF3_4, Q5T2W1
T2 sequence (Q5T2W1 373-468, limits assumed, looked up): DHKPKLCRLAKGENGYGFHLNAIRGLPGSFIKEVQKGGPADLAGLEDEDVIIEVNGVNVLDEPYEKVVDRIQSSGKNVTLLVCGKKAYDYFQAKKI

GRASP, Q7Z6J2 = target: GRASP, Q7Z6J2
DLG1_3, Q12959 = target: DLG1_3, Q12959
FRMPD2_1, Q68DX3 = target: FRMPD2_1, Q68DX3
Inadl_10, Q8NI35 = target: Inadl_10, Q8NI35
FRMPD2_3, Q68DX3 = target: FRMPD2_3, Q68DX3
DLG3_1, Q92796 = target: T3, DLG3_1, Q92796
T3 sequence (Q92796 125-227, limits assumed, looked up): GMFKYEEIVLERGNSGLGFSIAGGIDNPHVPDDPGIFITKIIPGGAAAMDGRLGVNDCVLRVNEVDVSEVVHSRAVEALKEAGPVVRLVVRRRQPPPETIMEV

LNX2_3, Q8N448 = target: T4, LNX2_3, Q8N448
T4 sequence (Q8N448 463-564, limits assumed, looked up): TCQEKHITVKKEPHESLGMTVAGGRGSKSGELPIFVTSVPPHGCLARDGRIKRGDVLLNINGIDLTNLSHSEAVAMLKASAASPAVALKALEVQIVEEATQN

SNTB1, Q13884 = target: T5, SNTB1, Q13884
T5 sequence (Q13884 107-205, limits assumed, looked up): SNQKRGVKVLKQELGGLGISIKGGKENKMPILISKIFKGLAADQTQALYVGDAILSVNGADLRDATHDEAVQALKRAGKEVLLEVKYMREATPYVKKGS

PARD3B_1, Q8TEW8 = target: T6, PARD3B_1, Q8TEW8
T6 sequence (Q8TEW8 196-299, limits assumed, looked up): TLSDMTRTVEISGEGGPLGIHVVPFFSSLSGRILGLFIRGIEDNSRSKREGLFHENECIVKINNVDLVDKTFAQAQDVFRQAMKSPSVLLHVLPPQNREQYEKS

FRMPD1, Q5SYB0 = target: T7, FRMPD1, Q5SYB0
T7 sequence (Q5SYB0 52-145, limits assumed, looked up): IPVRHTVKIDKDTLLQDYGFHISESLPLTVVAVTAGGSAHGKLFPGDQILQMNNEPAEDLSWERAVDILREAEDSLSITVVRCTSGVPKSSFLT

PDZD2_2, O15018 = target: T8, PDZD2_2, O15018
T8 sequence (O15018 329-429, limits assumed, looked up): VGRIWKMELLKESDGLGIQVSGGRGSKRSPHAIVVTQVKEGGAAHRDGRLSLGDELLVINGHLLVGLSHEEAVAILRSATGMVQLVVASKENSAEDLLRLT

LIN7A, O14910 = target: T9, LIN7A, O14910
T9 sequence (O14910 103-200, limits assumed, looked up): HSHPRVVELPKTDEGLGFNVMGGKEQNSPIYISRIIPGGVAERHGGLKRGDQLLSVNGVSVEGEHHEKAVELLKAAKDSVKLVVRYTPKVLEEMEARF

TJP1_3, Q07157 = target: TJP1_3, Q07157
Inadl_5, Q8NI35 = target: Inadl_5, Q8NI35
CARD11, Q9BXL7 = target: T10, CARD11, Q9BXL7
T10 sequence (Q9BXL7 662-765, limits assumed, looked up): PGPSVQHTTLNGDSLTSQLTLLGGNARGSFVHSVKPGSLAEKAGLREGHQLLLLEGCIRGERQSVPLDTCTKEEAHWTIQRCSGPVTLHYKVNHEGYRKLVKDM

HTRA1, Q92743 = target: HTRA1, Q92743
MPP6, Q9NZW5 = target: T11, MPP6, Q9NZW5
T11 sequence (Q9NZW5 125-219, limits assumed, looked up): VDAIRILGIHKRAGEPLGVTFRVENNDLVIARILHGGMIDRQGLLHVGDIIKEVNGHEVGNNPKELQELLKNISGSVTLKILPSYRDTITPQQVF

APBA2_1, Q99767 = target: T12, APBA2_1, Q99767
T12 sequence (Q99767 563-664, limits assumed, looked up): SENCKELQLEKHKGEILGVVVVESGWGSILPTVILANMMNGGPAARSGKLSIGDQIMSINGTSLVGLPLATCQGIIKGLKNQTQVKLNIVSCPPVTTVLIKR

LDB3, O75112 = target: LDB3, O75112
DLG4_2, P78352 = target: DLG4_2, P78352
[1] = plain residues with an end cap or a label only (N-terminal biotin on a linker: ado-ado)
[2] = plain residues with an end cap or a label only (N-terminal biotin on a linker: ahx)
[3] = plain residues with an end cap or a label only (N-terminal biotin on a linker: ttds)

Sequence of LDB3, O75112 (O75112 1-94): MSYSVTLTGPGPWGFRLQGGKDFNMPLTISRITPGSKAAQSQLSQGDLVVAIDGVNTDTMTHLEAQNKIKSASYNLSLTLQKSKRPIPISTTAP
Sequence of Inadl_5, Q8NI35 (Q8NI35 673-780): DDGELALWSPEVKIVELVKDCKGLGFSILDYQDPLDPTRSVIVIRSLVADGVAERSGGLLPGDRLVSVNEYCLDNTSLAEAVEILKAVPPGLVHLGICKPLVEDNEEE
Sequence of DLG4_2, P78352 (P78352 155-259): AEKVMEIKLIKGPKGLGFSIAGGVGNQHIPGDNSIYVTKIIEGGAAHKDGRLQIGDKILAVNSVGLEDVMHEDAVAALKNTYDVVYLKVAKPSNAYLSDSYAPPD
Sequence of FRMPD2_3, Q68DX3 (Q68DX3 1073-1166): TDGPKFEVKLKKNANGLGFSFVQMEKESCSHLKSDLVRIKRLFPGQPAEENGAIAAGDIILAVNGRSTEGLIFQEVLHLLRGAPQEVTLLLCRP
Sequence of PARD3_3, Q8TEW0 (Q8TEW0 582-685): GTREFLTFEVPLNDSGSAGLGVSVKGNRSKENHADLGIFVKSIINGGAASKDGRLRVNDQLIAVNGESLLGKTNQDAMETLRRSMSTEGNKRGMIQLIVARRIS
Sequence of NOS1, P29475 (P29475 9-101): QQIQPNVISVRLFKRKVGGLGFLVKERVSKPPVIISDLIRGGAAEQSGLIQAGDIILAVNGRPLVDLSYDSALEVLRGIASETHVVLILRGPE
Sequence of Inadl_10, Q8NI35 (Q8NI35 1673-1763): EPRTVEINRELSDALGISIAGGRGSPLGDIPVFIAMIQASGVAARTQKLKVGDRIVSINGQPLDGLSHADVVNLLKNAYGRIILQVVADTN
Sequence of FRMPD2_1, Q68DX3 (Q68DX3 770-861): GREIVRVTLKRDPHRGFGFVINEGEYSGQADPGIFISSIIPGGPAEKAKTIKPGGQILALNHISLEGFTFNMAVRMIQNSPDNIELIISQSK
Sequence of GRASP, Q7Z6J2 (Q7Z6J2 96-193): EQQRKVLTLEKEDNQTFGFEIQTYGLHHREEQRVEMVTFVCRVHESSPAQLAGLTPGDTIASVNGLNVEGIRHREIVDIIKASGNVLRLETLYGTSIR
Sequence of TJP1_3, Q07157 (Q07157 416-512): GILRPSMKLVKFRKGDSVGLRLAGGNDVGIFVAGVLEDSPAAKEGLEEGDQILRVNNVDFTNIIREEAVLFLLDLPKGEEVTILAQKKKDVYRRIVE
Sequence of HTRA1, Q92743 (Q92743 360-477): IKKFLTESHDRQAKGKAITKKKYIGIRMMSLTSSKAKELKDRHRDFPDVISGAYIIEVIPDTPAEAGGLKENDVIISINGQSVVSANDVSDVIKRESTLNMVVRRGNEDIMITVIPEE
Sequence of SCRIB_1, Q14160 (Q14160 718-814): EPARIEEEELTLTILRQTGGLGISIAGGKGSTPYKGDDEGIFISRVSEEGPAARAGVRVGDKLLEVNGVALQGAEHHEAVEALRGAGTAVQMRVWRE

B1: CBY2, Q8NA61 (peptide)
chain: SQDPKKPSRV
pKd (DLG1_1, Q12959; [1]): below the threshold
pKd (NOS1, P29475; [1]): 3.76
pKd (HTRA4, P83105; [1]): 3.9
pKd (SCRIB_1, Q14160; [1]): below the threshold
pKd (PARD3_3, Q8TEW0; [1]): below the threshold
pKd (NHERF3_4, Q5T2W1; [1]): below the threshold
pKd (GRASP, Q7Z6J2; [1]): below the threshold
pKd (DLG1_3, Q12959; [1]): below the threshold
pKd (FRMPD2_1, Q68DX3; [1]): below the threshold
pKd (Inadl_10, Q8NI35; [1]): below the threshold
pKd (FRMPD2_3, Q68DX3; [1]): below the threshold
pKd (DLG3_1, Q92796; [1]): below the threshold
pKd (LNX2_3, Q8N448; [1]): below the threshold
pKd (SNTB1, Q13884; [1]): below the threshold
pKd (PARD3B_1, Q8TEW8; [1]): below the threshold
pKd (FRMPD1, Q5SYB0; [1]): below the threshold
pKd (PDZD2_2, O15018; [1]): below the threshold
pKd (LIN7A, O14910; [1]): below the threshold
pKd (TJP1_3, Q07157; [1]): below the threshold
pKd (Inadl_5, Q8NI35; [1]): below the threshold
pKd (CARD11, Q9BXL7; [1]): below the threshold
pKd (HTRA1, Q92743; [1]): below the threshold
pKd (MPP6, Q9NZW5; [1]): 3.89
pKd (APBA2_1, Q99767; [1]): below the threshold
pKd (LDB3, O75112; [1]): below the threshold
pKd (DLG4_2, P78352; [1]): 3.49

B3: MAPK12, P53778 (peptide)
chain: GARVSKETPL
pKd (DLG1_1, Q12959; [3]): 4.08
pKd (NOS1, P29475; [3]): 3.82
pKd (HTRA4, P83105; [3]): below the threshold
pKd (SCRIB_1, Q14160; [3]): 4.94
pKd (PARD3_3, Q8TEW0; [3]): below the threshold
pKd (NHERF3_4, Q5T2W1; [3]): 3.72
pKd (GRASP, Q7Z6J2; [3]): 3.66
pKd (DLG1_3, Q12959; [3]): 3.95
pKd (FRMPD2_1, Q68DX3; [3]): below the threshold
pKd (Inadl_10, Q8NI35; [3]): below the threshold
pKd (FRMPD2_3, Q68DX3; [3]): below the threshold
pKd (DLG3_1, Q92796; [3]): 3.49
pKd (LNX2_3, Q8N448; [3]): below the threshold
pKd (SNTB1, Q13884; [3]): 4.71
pKd (PARD3B_1, Q8TEW8; [3]): below the threshold
pKd (FRMPD1, Q5SYB0; [3]): below the threshold
pKd (PDZD2_2, O15018; [3]): below the threshold
pKd (LIN7A, O14910; [3]): below the threshold
pKd (TJP1_3, Q07157; [3]): below the threshold
pKd (Inadl_5, Q8NI35; [3]): below the threshold
pKd (CARD11, Q9BXL7; [3]): below the threshold
pKd (HTRA1, Q92743; [3]): below the threshold
pKd (MPP6, Q9NZW5; [3]): below the threshold
pKd (APBA2_1, Q99767; [3]): below the threshold
pKd (LDB3, O75112; [3]): below the threshold
pKd (DLG4_2, P78352; [3]): 4.45

B5: DGKI, O75912 (peptide)
chain: IGHEDLETAV
pKd (DLG1_1, Q12959; [1]): 4.51
pKd (NOS1, P29475; [1]): 4.17
pKd (HTRA4, P83105; [1]): below the threshold
pKd (SCRIB_1, Q14160; [1]): 4.49
pKd (PARD3_3, Q8TEW0; [1]): 3.64
pKd (NHERF3_4, Q5T2W1; [1]): below the threshold
pKd (GRASP, Q7Z6J2; [1]): 3.57
pKd (DLG1_3, Q12959; [1]): 3.68
pKd (FRMPD2_1, Q68DX3; [1]): below the threshold
pKd (Inadl_10, Q8NI35; [1]): below the threshold
pKd (FRMPD2_3, Q68DX3; [1]): 3.56
pKd (DLG3_1, Q92796; [1]): 4.09
pKd (LNX2_3, Q8N448; [1]): below the threshold
pKd (SNTB1, Q13884; [1]): 5.08
pKd (PARD3B_1, Q8TEW8; [1]): below the threshold
pKd (FRMPD1, Q5SYB0; [1]): below the threshold
pKd (PDZD2_2, O15018; [1]): 5.25
pKd (LIN7A, O14910; [1]): 4.07
pKd (TJP1_3, Q07157; [1]): below the threshold
pKd (Inadl_5, Q8NI35; [1]): below the threshold
pKd (CARD11, Q9BXL7; [1]): below the threshold
pKd (HTRA1, Q92743; [1]): 3.65
pKd (MPP6, Q9NZW5; [1]): below the threshold
pKd (APBA2_1, Q99767; [1]): below the threshold
pKd (LDB3, O75112; [1]): below the threshold
pKd (DLG4_2, P78352; [1]): 4.97

Other lines, results leading:

pKd (DLG1_1, Q12959; [2]): 4.26
pKd (NOS1, P29475; [2]): 3.55
pKd (HTRA4, P83105; [2]): below the threshold
pKd (SCRIB_1, Q14160; [2]): 3.79
pKd (PARD3_3, Q8TEW0; [2]): 3.73
pKd (NHERF3_4, Q5T2W1; [2]): below the threshold
pKd (GRASP, Q7Z6J2; [2]): 4
pKd (DLG1_3, Q12959; [2]): 3.56
pKd (FRMPD2_1, Q68DX3; [2]): below the threshold
pKd (Inadl_10, Q8NI35; [2]): 3.62
pKd (FRMPD2_3, Q68DX3; [2]): below the threshold
pKd (DLG3_1, Q92796; [2]): 3.9
pKd (LNX2_3, Q8N448; [2]): below the threshold
pKd (SNTB1, Q13884; [2]): 3.78
pKd (PARD3B_1, Q8TEW8; [2]): below the threshold
pKd (FRMPD1, Q5SYB0; [2]): below the threshold
pKd (PDZD2_2, O15018; [2]): 4.23
pKd (LIN7A, O14910; [2]): below the threshold
pKd (TJP1_3, Q07157; [2]): below the threshold
pKd (Inadl_5, Q8NI35; [2]): below the threshold
pKd (CARD11, Q9BXL7; [2]): below the threshold
pKd (HTRA1, Q92743; [2]): 3.51
pKd (MPP6, Q9NZW5; [2]): below the threshold
pKd (APBA2_1, Q99767; [2]): below the threshold
pKd (LDB3, O75112; [2]): below the threshold
pKd (DLG4_2, P78352; [2]): 4.7
B2: MTMR1, Q13613 (peptide)
chain: HSATSVHTSV

pKd (DLG1_1, Q12959; [3]): 3.63
pKd (NOS1, P29475; [3]): below the threshold
pKd (HTRA4, P83105; [3]): below the threshold
pKd (SCRIB_1, Q14160; [3]): 5.08
pKd (PARD3_3, Q8TEW0; [3]): 4.22
pKd (NHERF3_4, Q5T2W1; [3]): below the threshold
pKd (GRASP, Q7Z6J2; [3]): below the threshold
pKd (DLG1_3, Q12959; [3]): below the threshold
pKd (FRMPD2_1, Q68DX3; [3]): below the threshold
pKd (Inadl_10, Q8NI35; [3]): below the threshold
pKd (FRMPD2_3, Q68DX3; [3]): below the threshold
pKd (DLG3_1, Q92796; [3]): below the threshold
pKd (LNX2_3, Q8N448; [3]): below the threshold
pKd (SNTB1, Q13884; [3]): below the threshold
pKd (PARD3B_1, Q8TEW8; [3]): below the threshold
pKd (FRMPD1, Q5SYB0; [3]): below the threshold
pKd (PDZD2_2, O15018; [3]): 4
pKd (LIN7A, O14910; [3]): below the threshold
pKd (TJP1_3, Q07157; [3]): below the threshold
pKd (Inadl_5, Q8NI35; [3]): below the threshold
pKd (CARD11, Q9BXL7; [3]): below the threshold
pKd (HTRA1, Q92743; [3]): 3.73
pKd (MPP6, Q9NZW5; [3]): below the threshold
pKd (APBA2_1, Q99767; [3]): below the threshold
pKd (LDB3, O75112; [3]): 3.49
pKd (DLG4_2, P78352; [3]): below the threshold
B4: PODXL, O00592 (peptide)
chain: DLDEEEDTHL
